Data published in patent US20110088129A1.

How the values were obtained:
[1] = molecular target: binding sites in brush border membrane vesicles (BBMV) from midguts of last instar Helicoverpa armigera larvae (Helicoverpa armigera); assay: direct saturation assay, labeled Cry1Ac on BBMV at the same concentration as for Cry2Ab
[2] = molecular target: binding sites in brush border membrane vesicles (BBMV) from midguts of last instar Helicoverpa zea larvae (Helicoverpa zea); assay: homologous competition, 125I-Cry1Ac on H. zea BBMV, LIGAND program
[3] = molecular target: binding sites in brush border membrane vesicles (BBMV) from midguts of last instar Helicoverpa armigera larvae (Helicoverpa armigera); assay: homologous competition, 125I-Cry1Ac on H. armigera BBMV, LIGAND program

How did the fold less toxin needed for saturation than in the Cry2Ab assay [1] turn out when “Cry1Ac activated toxin (trypsin-activated Cry1Ac protoxin from B. thuringiensis strain HD73) (from UniProt P05068 29-623) (ligand)” was run?
The fold less toxin needed for saturation than in the Cry2Ab assay was 4 fold.

And the Kd [2]?
Its Kd is 0.17 nM.

And the Rt (binding site concentration) (pmol/mg BBMV protein) [2]?
The Rt (binding site concentration) (pmol/mg BBMV protein) was 10.

And the Kd [3]?
Its Kd is 0.08 nM.

What about the Rt (binding site concentration) (pmol/mg BBMV protein) [3] of the same substance?
Its Rt (binding site concentration) (pmol/mg BBMV protein) is 0.96.
